Sequences and labels used below:
B1: Hereditary hemochromatosis protein (Homo sapiens), Q30201 (parent)
chain: MGPRARPALLLLMLLQTAVLQGRLLRSHSLHYLFMGASEQDLGLSLFEALGYVDDQLFVFYDHESRRVEPRTPWVSSRISSQMWLQLSQSLKGWDHMFTVDFWTIMENHNHSKESHTLQVILGCEMQEDNSTEGYWKYGYDGQDHLEFCPDTLDWRAAEPRAWPTKLEWERHKIRARQNRAYLERDCPAQLQQLLELGRGVLDQQVPPLVKVTHHVTSSVTTLRCRALNYYPQNITMKWLKDKQPMDAKEFEPKDVLPNGDGTYQGWITLAVPPGEEQRYTCQVEHPGLDQPLIVIWEPSPSGTLVIGVISGIAVFVVILFIGILFIILRKRQGSRGAMGHYVLAERE

The values below come from IntAct's records for PubMed 15965644.

The first assay covers variants of B1. The note with it: with b2mg_human B2M.
As for Q283P, the “effect of a mutation on the interaction” value is recorded as “disrupting interaction”.

Variants of B1 are the subject of a further assay. The note with it: with tfr1_human TFRC.
Take Q283P: the “effect of a mutation on the interaction” value is on record as “disrupting interaction”.
